Values quoted from earlier work, collected in paper PMC10343017.

Legend:
CMG2 (Homo sapiens) = CMG2 (Homo sapiens) (UniProt P58335)
TEM8 (Homo sapiens) = TEM8 (Homo sapiens) (UniProt Q9H6X2)

Which Kd (CMG2 (Homo sapiens)) does the source give for “protective antigen (from UniProt P13423)” here?
The Kd was 0.78 nM.

What about the Kd (TEM8 (Homo sapiens)) of the same substance?
Its Kd is 130 nM.
